Assay results taken from patent US20220387586A1 (Hoffmann-La Roche, published 2022).

Key:
biotinylated-Lag3 [1] = molecular target: T1, biotinylated-Lag3 (UniProt P18627 23-450, limits assumed, biotinylated); experiment: ELISA, inhibition of biotinylated-Lag3 binding to MHC-II on A375 cells (competitor MHC-II); second of two numbers; second of two series in the cell (the series of '/0.4' and '/1.0')
T1 construct: Probably a human LAG3 ECD construct; also called Lag3 (MHCII/ELISA)
T1 sequence (looked up): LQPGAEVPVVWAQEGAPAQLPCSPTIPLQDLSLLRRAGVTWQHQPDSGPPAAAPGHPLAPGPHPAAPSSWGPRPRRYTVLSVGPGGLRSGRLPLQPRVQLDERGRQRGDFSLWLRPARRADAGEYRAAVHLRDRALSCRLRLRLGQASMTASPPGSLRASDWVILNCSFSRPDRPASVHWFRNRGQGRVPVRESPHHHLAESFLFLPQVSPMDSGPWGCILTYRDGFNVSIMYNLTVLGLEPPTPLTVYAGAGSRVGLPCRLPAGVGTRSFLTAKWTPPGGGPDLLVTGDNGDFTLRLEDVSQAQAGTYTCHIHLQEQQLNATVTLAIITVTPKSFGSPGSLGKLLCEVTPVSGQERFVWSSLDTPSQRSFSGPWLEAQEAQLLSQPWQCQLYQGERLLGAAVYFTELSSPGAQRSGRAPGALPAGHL

biotinylated-Lag3 [2] = molecular target: T1, biotinylated-Lag3; experiment: ELISA, inhibition of biotinylated-Lag3 binding to MHC-II on A375 cells (competitor MHC-II); first of two numbers; first of two series in the cell
cynomolgus LAG3 on cells [3] = molecular target: T2, cynomolgus LAG3 on cells (cynomolgus); experiment: flow cytometry on HEK293F cells transfected with cyno-LAG-3, antibody 10 µg/ml
T2 construct: whole, on cells; also called cyno-LAG-3; cynoLAG3
Description: 1.5×10⁵ cells/well were seeded into 96-well plates. […] HEK cells were incubated with indicated antibodies for 45 min on ice, washed twice with 200 μl ice-cold PBS buffer containing 2% FBS, before secondary antibody (APC-labelled goat anti-human IgG-kappa, Invitrogen, cat.no. #MH10515) was added (1:50 diluted in FACS-Puffer/well) and further incubated for 30 min on ice. Cells were again washed twice with 200 μl ice-cold PBS/2% FBS buffer before samples were finally resuspended in 150 μl FACS buffer and binding was measured on FACS CANTO-II HTS Module.

[4] = molecular target: T3, LAG3 on cells (recombinant CHO cells expressing Lag3) (human, UniProt P18627 29-525); experiment: cell-based or functional assay
T3 sequence: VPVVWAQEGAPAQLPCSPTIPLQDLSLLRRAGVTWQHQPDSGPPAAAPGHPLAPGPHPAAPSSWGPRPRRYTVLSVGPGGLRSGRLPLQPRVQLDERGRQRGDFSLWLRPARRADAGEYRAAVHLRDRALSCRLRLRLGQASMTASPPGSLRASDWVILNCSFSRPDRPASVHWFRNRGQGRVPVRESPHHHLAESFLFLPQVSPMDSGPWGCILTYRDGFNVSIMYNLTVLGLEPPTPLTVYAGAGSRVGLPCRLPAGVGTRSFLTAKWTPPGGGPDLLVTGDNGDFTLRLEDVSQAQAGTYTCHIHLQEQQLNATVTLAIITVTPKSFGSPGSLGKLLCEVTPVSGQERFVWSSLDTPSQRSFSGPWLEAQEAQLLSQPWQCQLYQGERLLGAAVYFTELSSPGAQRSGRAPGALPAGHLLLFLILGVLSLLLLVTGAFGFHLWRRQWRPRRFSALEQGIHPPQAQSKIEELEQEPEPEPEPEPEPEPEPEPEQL

cynomolgus LAG3 on cells [5] = molecular target: T2, cynomolgus LAG3 on cells; experiment: flow cytometry on activated cynomolgus PBMC, 10 µg/ml (only 2nd Ab (hu): 7.62)
Description: Thus, cynomolgus peripheral blood mononuclear cells (PBMC) were prepared from fresh cynomolgus blood and were then activated by CD3/CD28 pre-treatment (1 μg/ml) for 2-3 days. […] After staining, cells were washed two times with PBS/2% FCS and analyzed on a FACS Fortessa (BD).

[6] = molecular target: T4, human Fc tagged human Lag3 extra cellular domain (human, UniProt P18627 29-450, biotinylated in the epitope binning, the SA CAP SPR and the FACS competition assay); experiment: FACS, inhibition of biotinylated Lag3:Fc binding to MHC-II on A375 cells (competitor MHC-II); antibody 10 µg/ml
T4 construct: In-house fusion; also called huLag3-Fc; biotinylated, huFc-tagged huLag3; not shown: human Fc tag
T4 sequence: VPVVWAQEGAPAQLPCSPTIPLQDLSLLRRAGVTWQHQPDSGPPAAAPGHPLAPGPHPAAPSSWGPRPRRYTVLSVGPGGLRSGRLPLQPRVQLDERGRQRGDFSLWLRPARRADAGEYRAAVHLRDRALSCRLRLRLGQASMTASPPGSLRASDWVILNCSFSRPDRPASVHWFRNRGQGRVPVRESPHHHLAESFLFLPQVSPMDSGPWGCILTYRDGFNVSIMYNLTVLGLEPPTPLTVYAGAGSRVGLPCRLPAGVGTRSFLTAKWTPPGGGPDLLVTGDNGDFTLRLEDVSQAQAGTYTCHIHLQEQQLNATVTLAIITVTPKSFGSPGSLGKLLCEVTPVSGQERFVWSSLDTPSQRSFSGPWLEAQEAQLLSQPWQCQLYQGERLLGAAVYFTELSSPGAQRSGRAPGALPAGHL

[7] = molecular target: T3, LAG3 on cells (recombinant CHO cells …); experiment: cell ELISA on recombinant CHO cells expressing Lag3
Description: After washing (1×90 μl in PBST) cells were fixed by addition of 30 μl/well glutaraldehyde to a final concentration of 0.05% (Sigma Cat.No: G5882), 10 min at room temperature. After washing (3×90 μl/well with PBST-buffer) 25 μl/well goat anti-Human Ig κ chain antibody-HRP conjugate (Milipore, AP502P) was added in a 1:1000 dilution and incubated at RT for 1 h. After washing (3×90 μl/well with PBST-buffer) 25 μl/well TMB substrate (Roche, 11835033001) was added and incubated for 6-10 min. Measurement took place on a Tecan Safire 2 instrument at 370/492 nm.

B1: Reference LAG3 antibody MDX25F7 (antibody, V domains shown)
VH: QVQLQQWGAGLLKPSETLSLTCAVYGGSFSDYYWNWIRQPPGKGLEWIGEINHNGNTNSNPSLKSRVTLSLDTSKNQFSLKLRSVTAADTAVYYCAFGYSDYEYNWFDPWGQGTLVTVSS
VL: EIVLTQSPATLSLSPGERATLSCRASQSISSYLAWYQQKPGQAPRLLIYDASNRATGIPARFSGSGSGTDFTLTISSLEPEDFAVYYCQQRSNWPLTFGQGTNLEIK
notes: also called MDX-25F7 (25F7); Medarex 25F7
B1 was tested, and the IC50 (biotinylated-Lag3 [1]) was 0.6 nM, the IC50 (biotinylated-Lag3 [2]) was 0.8 nM and the “% pos.” value (cynomolgus LAG3 on cells [3]) was 41.2%. The GeoMean (cynomolgus LAG3 on cells [3]) was 3060, the “EC50 [nM] in Jurkat LAG3 + SED + Raji (NFAT luciferase), 2nd assay” value [4] was 8.6 nM and the “% positive cyno cells (PBLs) after CD3/CD28 activation” value (cynomolgus LAG3 on cells [5]) was 22.1%. The “% Inhibition” value [6] was 70% and the “CHO-cell ELISA inflexion point” value [7] was 75 ng/mL.
